Assay results as given in IntAct's records for PubMed 11259577.

B1: Insulin receptor substrate 1 (Rattus norvegicus (Rat)), P35570 (parent)
chain: MASPPDTDGFSDVRKVGYLRKPKSMHKRFFVLRAASEAGGPARLEYYENEKKWRHKSSAPKRSIPLESCFNINKRADSKNKHLVALYTRDEHFAIAADSEAEQDSWYQALLQLHNRAKAHHDGAGGGCGGSCSGSSGVGEAGEDLSYDTGPGPAFKEVWQVILKPKGLGQTKNLIGIYRLCLTSKTISFVKLNSEAAAVVLQLMNIRRCGHSENFFFIEVGRSAVTGPGEFWMQVDDSVVAQNMHETILEAMRAMSDEFRPRTKSQSSSSCSNPISVPLRRHHLNNPPPSQVGLTRRSRTESITATSPASMVGGKPGSFRVRASSDGEGTMSRPASVDGSPVSPSTNRTHAHRHRGSSRLHPPLNHSRSIPMPSSRCSPSATSPVSLSSSSTSGHGSTSDCLFPRRSSASVSGSPSDGGFISSDEYGSSPCDFRSSFRSVTPDSLGHTPPARGEEELSNYICMGGKGASTLTAPNGHYILSRGGNGHRYIPGATMGTSPALTGDEAAGAADLDNRFRKRTHSAGTSPTISHQKTPSQSSVVSIEEYTEMMPAAYPPGGGSGGRLPGYRHSAFVPTHSYPEEGLEMHHLERRGGHHRPDSSNLHTDDGYMPMSPGVAPVPSNRKGNGDYMPMSPKSVSAPQQIINPIRRHPQRVDPNGYMMMSPSGSCSPDIGGGSCSSSSISAAPSGSSYGKPWTNGVGGHHTHALPHAKPPVESGGGKLLPCTGDYMNMSPVGDSNTSSPSECYYGPEDPQHKPVLSYYSLPRSFKHTQRPGEPEEGARHQHLRLSSSSGRLRYTATAEDSSSSTSSDSLGGGYCGARPESSVTHPHHHALQPHLPRKVDTAAQTNSRLARPTRLSLGDPKASTLPRVREQQQQQQQQQQSSLHPPEPKSPGEYVNIEFGSGQPGYLAGPATSRSSPSVRCLPQLHPAPREETGSEEYMNMDLGPGRRATWQESGGVELGRVGPAPPGAASICRPTRSVPNSRGDYMTMQIGCPRQSYVDTSPVAPVSYADMRTGIAAEKVSLPRTTGAAPPPSSTASASASVTPQGAAEQAAHSSLLGGPQGPGGMSAFTRVNLSPNHNQSAKVIRADTQGCRRRHSSETFSAPTRAANTVSFGAGAAGGGSGGGSEDVKRHSSASFENVWLRPGDLGGASKESAPGCGAAGGLEKSLNYIDLDLVKDVKQHPQDCPSQQQSLPPPPPHQPLGSNEGSSPRRSSEDLSTYASINFQKQPEDRQ
partner: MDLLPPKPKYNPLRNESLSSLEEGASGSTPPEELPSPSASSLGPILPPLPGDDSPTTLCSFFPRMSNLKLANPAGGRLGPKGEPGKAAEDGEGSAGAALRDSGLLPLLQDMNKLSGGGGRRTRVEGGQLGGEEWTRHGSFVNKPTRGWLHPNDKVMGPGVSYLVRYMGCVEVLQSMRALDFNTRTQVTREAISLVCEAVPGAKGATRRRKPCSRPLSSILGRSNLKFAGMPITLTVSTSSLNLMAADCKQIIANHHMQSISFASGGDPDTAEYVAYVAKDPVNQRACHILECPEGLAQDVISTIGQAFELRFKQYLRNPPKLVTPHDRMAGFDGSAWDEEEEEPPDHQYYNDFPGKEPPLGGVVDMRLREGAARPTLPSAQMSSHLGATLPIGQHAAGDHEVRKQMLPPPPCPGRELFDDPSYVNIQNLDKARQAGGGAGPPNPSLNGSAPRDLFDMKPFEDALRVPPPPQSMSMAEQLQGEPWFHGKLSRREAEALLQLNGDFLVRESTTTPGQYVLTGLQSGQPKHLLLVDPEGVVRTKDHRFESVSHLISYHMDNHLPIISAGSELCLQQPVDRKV

Variants of: B1
Conditions: with shc1_mouse Shc1, P98083

Variant | effect of a mutation on the interaction
Y895F | with no effect
